In publication PMC3554631, “Structural Basis of a Histone H3 Lysine 4 Demethylase Required for Stem Elongation in Rice” (PLoS Genetics, 2013):

What was measured:
Type in all cases: cell-based
Details in all cases: mutant expressed transiently in tobacco cells, immunostaining of nuclei, at least 30 nuclei per transfection
H3K4me1 = assay: H3K4 demethylation assay in tobacco cells of JMJ703 substitution mutants, H3K4me1
Description: (§1) The cDNA fragment of the J3NCZ region was amplified using primers FAJ3NCZ-F and FAJ3NCZ-R and then cloned into pFA121 vector modified from pBI121 (GenBank: AF485783.1), in which GUS was replaced by 2×FLAG∶2×HA tag. The pFA121-J3NCZ plasmid was transferred into Agrobacterium tumefaciens strain EHA105 cells for tobacco infection with the help of Agrobacterium cells harboring P19 plasmids. For in vivo histone demethylation assay, tobacco infection and nuclei isolation were performed as previously described. The immunostaining protocol was modified from http://sites.bio.indiana.edu/~pikaardlab. Briefly, the nucleus solution was placed on a poly-lysine coated slide, air dried, and then refixed with 4% formaldehyde in KPBS (1.28 M NaCl, 20 mM KCl, 80 mM Na2HPO4, 20 mM KH2PO4, pH7.2) containing 1% Triton X-100 for 20 min. After 3 washes with KPBS-1% Triton, slides were blocked with blocking solution (1% BSA in KPBS-1% Triton) and incubated at 37°C for 30 min. The blocking solution was washed off with KPBS-1% Triton and the slides were incubated with both anti-HA and histone méthylation specific antibodies diluted in blocking solution to 1∶300 at 4°C overnight. After washing with KPBS, slides were blocked and incubated with fluorescent-labeled antibodies at 37°C for 2 h. After washing with KPBS thrice, nuclei were stained with 5 µg/mL 4,6-diamidino-2-phenylindole (DAPI), coated with a drop of VECTASHIELD Mounting Medium (H-1000, Vector Laboratories), and then covered with a coverslip followed by confocal microscope (Leica) detection. In vitro histone demethylation assays were performed as previously described. FA-J3NCZ was purified after overexpression with Anti-FLAG M2 magnetic beads according the manufacturer's instruction (Sigma).
(§2) Supplementary file pgen.1003239.s006.tif: Figure S6 Demethylation assays for JMJ703 substitution mutants that have been produced based on the structural data. The mutant names are labeled at the top left corner of each panel. Image panels from left to right are staining by DAPI, anti-HA and anti-methylated histones, respectively. Bar = 10 µm. At least 30 nuclei that expressed JMJ703 per transfection were observed and imaged. (TIF) Click here for additional data file.

H3K4me2 = assay: H3K4 demethylation assay in tobacco cells of JMJ703 substitution mutants, H3K4me2
Description: as §1, §2

H3K4me3 = assay: H3K4 demethylation assay in tobacco cells of JMJ703 substitution mutants, H3K4me3
Description: as §1, §2

B1: H394A: JMJ703 substitution mutant, Fe-binding residue (protein, UniProt Q53WJ1 1-1238, looked up, variant H394A)
Lysine-specific demethylase …: MMGVTTTLNEDTEPSIPPGFGPFATLPLWGIHNDAKPAVTHSTPVQALQSIRKDSEECQPSAAVSRSDTPCSTSGTQTCRKSLRNRPPIDYSRFEHISDEDSDVEIVEKDVSSTRRRQQLPKGVLRGCAECSDCQKVIAKWNPAGARRPVLDEAPVFYPTEEEFEDTLKYIESIRPMAEPYGICRIVPPSSWKPPCLLKDKSIWEGSKFSTRVQKVDKLQNRKSSKKGRRGGMMKRRKLAESEENSATAHTQTGMQQSPERFGFEPGPEFTLQTFQKYADDFSKQYFRKDTSMDSVPSVEDIEGEYWRIVEVPTEEIEVIYGADLETGTFGSGFPKLSPETKSDAEDKYAQSGWNLNNLPRLQGSVLSFEGGDISGVLVPWVYVGMCFSSFCWAVEDHHLYSLNYMHWGAPKLWYGVPGKDAVNLESAMRKHLPELFEEQPDLLHNLVTQFSPSLLKSEGVHVYRCVQHEGEFVLTFPRAYHAGFNCGFNCAEAVNVAPIDWLPIGHNAVELYREQARKITISHDKLLLGAAREAIRAQWDILFLKRNTADNMRWKSICGADSTIFKALKARIETELVQRKTLGVPAQSRKMDAEFDSIDRECALCYYDLHLSASGCPCCPEKYACLVHAKQLCSCDWDKRFFLFRYDVNELNILADALGGKLSAIHRWGVSDLGLSLSSCVKREKVQDSKTVRRLTDGPRRSYMSQASAVSLVSSSTSNEQKDEGNKIMKIASPQTNNVCPSVEQRKSENISPLKEPCVRNELSCTTNSDSNGLQYNGGLGGHKGSAPGLPVSSSPSFSSNVATRPISTSSVSMKIVQGLVASKSCIQASSRTGDSRSLLGEHHNRSPAMIHDGTNMKSSLESSNNSCRLIASDYNATPCHSSKDQVLVTPGTNASVVTLKDSSQVHSASSQQFVRTGPWTQSASHEASSPSTSALKPSLDPPAMKNLYGGFTQGSAHPGPPSFSNQQPNDGRLQRTSESLPGVEARARGHPTVTAQPALEIHSRNGGAQKGPRIANVVHRFKCSVEPLEIGVVLSGRLWSSSQAIFPKGFRSRVKYFSIVDPIQMAYYISEILDAGMQGPLFMVKLENCPGEVFINLSPTKCWNMVRERLNMEIRRQLNMGKSNLPTLQPPGSVDGLEMFGLLSPPIVQAIWARDRDHICTEYWRSRPHVLIEDPNNRHMLSQGPPLLALRGLIQRANRDELQVLRSLMTNSNNLDDSSRQQAAHIIEEEIAKQLC
no: H3K4me1 demethylation activity (H3K4me1) | H3K4me2 demethylation activity (H3K4me2) | H3K4me3 demethylation activity (H3K4me3)

B2: H482Y: JMJ703 substitution mutant, Fe-binding residue (protein, UniProt Q53WJ1 1-1238, looked up, variant H482Y)
Lysine-specific demethylase …: MMGVTTTLNEDTEPSIPPGFGPFATLPLWGIHNDAKPAVTHSTPVQALQSIRKDSEECQPSAAVSRSDTPCSTSGTQTCRKSLRNRPPIDYSRFEHISDEDSDVEIVEKDVSSTRRRQQLPKGVLRGCAECSDCQKVIAKWNPAGARRPVLDEAPVFYPTEEEFEDTLKYIESIRPMAEPYGICRIVPPSSWKPPCLLKDKSIWEGSKFSTRVQKVDKLQNRKSSKKGRRGGMMKRRKLAESEENSATAHTQTGMQQSPERFGFEPGPEFTLQTFQKYADDFSKQYFRKDTSMDSVPSVEDIEGEYWRIVEVPTEEIEVIYGADLETGTFGSGFPKLSPETKSDAEDKYAQSGWNLNNLPRLQGSVLSFEGGDISGVLVPWVYVGMCFSSFCWHVEDHHLYSLNYMHWGAPKLWYGVPGKDAVNLESAMRKHLPELFEEQPDLLHNLVTQFSPSLLKSEGVHVYRCVQHEGEFVLTFPRAYYAGFNCGFNCAEAVNVAPIDWLPIGHNAVELYREQARKITISHDKLLLGAAREAIRAQWDILFLKRNTADNMRWKSICGADSTIFKALKARIETELVQRKTLGVPAQSRKMDAEFDSIDRECALCYYDLHLSASGCPCCPEKYACLVHAKQLCSCDWDKRFFLFRYDVNELNILADALGGKLSAIHRWGVSDLGLSLSSCVKREKVQDSKTVRRLTDGPRRSYMSQASAVSLVSSSTSNEQKDEGNKIMKIASPQTNNVCPSVEQRKSENISPLKEPCVRNELSCTTNSDSNGLQYNGGLGGHKGSAPGLPVSSSPSFSSNVATRPISTSSVSMKIVQGLVASKSCIQASSRTGDSRSLLGEHHNRSPAMIHDGTNMKSSLESSNNSCRLIASDYNATPCHSSKDQVLVTPGTNASVVTLKDSSQVHSASSQQFVRTGPWTQSASHEASSPSTSALKPSLDPPAMKNLYGGFTQGSAHPGPPSFSNQQPNDGRLQRTSESLPGVEARARGHPTVTAQPALEIHSRNGGAQKGPRIANVVHRFKCSVEPLEIGVVLSGRLWSSSQAIFPKGFRSRVKYFSIVDPIQMAYYISEILDAGMQGPLFMVKLENCPGEVFINLSPTKCWNMVRERLNMEIRRQLNMGKSNLPTLQPPGSVDGLEMFGLLSPPIVQAIWARDRDHICTEYWRSRPHVLIEDPNNRHMLSQGPPLLALRGLIQRANRDELQVLRSLMTNSNNLDDSSRQQAAHIIEEEIAKQLC
no: H3K4me1 demethylation activity (H3K4me1) | H3K4me2 demethylation activity (H3K4me2) | H3K4me3 demethylation activity (H3K4me3)

B3: W381A: JMJ703 substitution mutant, residue conserved in H3K4 demethylases (protein, UniProt Q53WJ1 1-1238, looked up, variant W381A)
Lysine-specific demethylase …: MMGVTTTLNEDTEPSIPPGFGPFATLPLWGIHNDAKPAVTHSTPVQALQSIRKDSEECQPSAAVSRSDTPCSTSGTQTCRKSLRNRPPIDYSRFEHISDEDSDVEIVEKDVSSTRRRQQLPKGVLRGCAECSDCQKVIAKWNPAGARRPVLDEAPVFYPTEEEFEDTLKYIESIRPMAEPYGICRIVPPSSWKPPCLLKDKSIWEGSKFSTRVQKVDKLQNRKSSKKGRRGGMMKRRKLAESEENSATAHTQTGMQQSPERFGFEPGPEFTLQTFQKYADDFSKQYFRKDTSMDSVPSVEDIEGEYWRIVEVPTEEIEVIYGADLETGTFGSGFPKLSPETKSDAEDKYAQSGWNLNNLPRLQGSVLSFEGGDISGVLVPAVYVGMCFSSFCWHVEDHHLYSLNYMHWGAPKLWYGVPGKDAVNLESAMRKHLPELFEEQPDLLHNLVTQFSPSLLKSEGVHVYRCVQHEGEFVLTFPRAYHAGFNCGFNCAEAVNVAPIDWLPIGHNAVELYREQARKITISHDKLLLGAAREAIRAQWDILFLKRNTADNMRWKSICGADSTIFKALKARIETELVQRKTLGVPAQSRKMDAEFDSIDRECALCYYDLHLSASGCPCCPEKYACLVHAKQLCSCDWDKRFFLFRYDVNELNILADALGGKLSAIHRWGVSDLGLSLSSCVKREKVQDSKTVRRLTDGPRRSYMSQASAVSLVSSSTSNEQKDEGNKIMKIASPQTNNVCPSVEQRKSENISPLKEPCVRNELSCTTNSDSNGLQYNGGLGGHKGSAPGLPVSSSPSFSSNVATRPISTSSVSMKIVQGLVASKSCIQASSRTGDSRSLLGEHHNRSPAMIHDGTNMKSSLESSNNSCRLIASDYNATPCHSSKDQVLVTPGTNASVVTLKDSSQVHSASSQQFVRTGPWTQSASHEASSPSTSALKPSLDPPAMKNLYGGFTQGSAHPGPPSFSNQQPNDGRLQRTSESLPGVEARARGHPTVTAQPALEIHSRNGGAQKGPRIANVVHRFKCSVEPLEIGVVLSGRLWSSSQAIFPKGFRSRVKYFSIVDPIQMAYYISEILDAGMQGPLFMVKLENCPGEVFINLSPTKCWNMVRERLNMEIRRQLNMGKSNLPTLQPPGSVDGLEMFGLLSPPIVQAIWARDRDHICTEYWRSRPHVLIEDPNNRHMLSQGPPLLALRGLIQRANRDELQVLRSLMTNSNNLDDSSRQQAAHIIEEEIAKQLC
no: H3K4me1 demethylation activity (H3K4me1) | H3K4me2 demethylation activity (H3K4me2) | H3K4me3 demethylation activity (H3K4me3)

B4: L447A: JMJ703 substitution mutant, residue conserved in H3K4 demethylases (protein, UniProt Q53WJ1 1-1238, looked up, variant L447A)
Lysine-specific demethylase …: MMGVTTTLNEDTEPSIPPGFGPFATLPLWGIHNDAKPAVTHSTPVQALQSIRKDSEECQPSAAVSRSDTPCSTSGTQTCRKSLRNRPPIDYSRFEHISDEDSDVEIVEKDVSSTRRRQQLPKGVLRGCAECSDCQKVIAKWNPAGARRPVLDEAPVFYPTEEEFEDTLKYIESIRPMAEPYGICRIVPPSSWKPPCLLKDKSIWEGSKFSTRVQKVDKLQNRKSSKKGRRGGMMKRRKLAESEENSATAHTQTGMQQSPERFGFEPGPEFTLQTFQKYADDFSKQYFRKDTSMDSVPSVEDIEGEYWRIVEVPTEEIEVIYGADLETGTFGSGFPKLSPETKSDAEDKYAQSGWNLNNLPRLQGSVLSFEGGDISGVLVPWVYVGMCFSSFCWHVEDHHLYSLNYMHWGAPKLWYGVPGKDAVNLESAMRKHLPELFEEQPDLLHNAVTQFSPSLLKSEGVHVYRCVQHEGEFVLTFPRAYHAGFNCGFNCAEAVNVAPIDWLPIGHNAVELYREQARKITISHDKLLLGAAREAIRAQWDILFLKRNTADNMRWKSICGADSTIFKALKARIETELVQRKTLGVPAQSRKMDAEFDSIDRECALCYYDLHLSASGCPCCPEKYACLVHAKQLCSCDWDKRFFLFRYDVNELNILADALGGKLSAIHRWGVSDLGLSLSSCVKREKVQDSKTVRRLTDGPRRSYMSQASAVSLVSSSTSNEQKDEGNKIMKIASPQTNNVCPSVEQRKSENISPLKEPCVRNELSCTTNSDSNGLQYNGGLGGHKGSAPGLPVSSSPSFSSNVATRPISTSSVSMKIVQGLVASKSCIQASSRTGDSRSLLGEHHNRSPAMIHDGTNMKSSLESSNNSCRLIASDYNATPCHSSKDQVLVTPGTNASVVTLKDSSQVHSASSQQFVRTGPWTQSASHEASSPSTSALKPSLDPPAMKNLYGGFTQGSAHPGPPSFSNQQPNDGRLQRTSESLPGVEARARGHPTVTAQPALEIHSRNGGAQKGPRIANVVHRFKCSVEPLEIGVVLSGRLWSSSQAIFPKGFRSRVKYFSIVDPIQMAYYISEILDAGMQGPLFMVKLENCPGEVFINLSPTKCWNMVRERLNMEIRRQLNMGKSNLPTLQPPGSVDGLEMFGLLSPPIVQAIWARDRDHICTEYWRSRPHVLIEDPNNRHMLSQGPPLLALRGLIQRANRDELQVLRSLMTNSNNLDDSSRQQAAHIIEEEIAKQLC
no: H3K4me1 demethylation activity (H3K4me1) | H3K4me2 demethylation activity (H3K4me2) | H3K4me3 demethylation activity (H3K4me3)
